Drawing on PMC10397247, this text covers interaction score for three molecules.

One assay has as its target T1, 4H2726-AA.
T1 chain: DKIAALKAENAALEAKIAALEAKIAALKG
The assay can be described thus: two-hybrid library CCmax.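 Also: natural log of median RNA to DNA barcode read ratio; higher means stronger binding.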 The settings on record: mean of both orientations.

In the next assay the target is T2, 4H2536-AA.
T2 chain: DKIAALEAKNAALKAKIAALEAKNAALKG
The experiment in a line: two-hybrid library CCmax.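 Also: natural log of median RNA to DNA barcode read ratio; higher means stronger binding.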

For the next assay, the target named is T3, 4H2935-AA.
T3 chain: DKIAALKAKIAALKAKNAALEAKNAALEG
The experiment in a line: two-hybrid library CCmax.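 Also: natural log of median RNA to DNA barcode read ratio; higher means stronger binding.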 Particulars: mean of both orientations.

The target in another assay is T4, 4H3625-AA.
T4 chain: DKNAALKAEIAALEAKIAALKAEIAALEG
The experiment in a line: two-hybrid library CCmax.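 Also: natural log of median RNA to DNA barcode read ratio; higher means stronger binding.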 Particulars: mean of both orientations.

For a further assay, the target named is T5, 4H4033-AA.
T5 chain: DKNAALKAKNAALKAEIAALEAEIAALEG
The assay can be described thus: two-hybrid library CCmax.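 Also: natural log of median RNA to DNA barcode read ratio; higher means stronger binding.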 Particulars: mean of both orientations.

For a further assay, the target named is T6, 4H662-AA.
T6 chain: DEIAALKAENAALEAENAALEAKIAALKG
The experiment in a line: two-hybrid library CCmax.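 Also: natural log of median RNA to DNA barcode read ratio; higher means stronger binding.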 The settings on record: mean of both orientations.

A further assay concerns the target T7, 4H369-AA.
T7 chain: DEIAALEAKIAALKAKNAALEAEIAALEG
The experiment in a line: two-hybrid library CCmax.

In the next assay the target is T8, O3-AA.
T8 chain: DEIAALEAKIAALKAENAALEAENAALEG
The assay can be described thus: two-hybrid library CCmax.

For a further assay, the target named is T9, 4H55-AA.
T9 chain: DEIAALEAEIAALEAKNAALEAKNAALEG
The experiment in a line: two-hybrid library CCmax. Particulars: mean of both orientations.

A further assay addresses T10, 4H481-AA.
T10 chain: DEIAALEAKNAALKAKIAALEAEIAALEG
The experiment in a line: two-hybrid library CCmax. Particulars: mean of both orientations.

The target of another assay is T11, 4H2614-AA.
T11 chain: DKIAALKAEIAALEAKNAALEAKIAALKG
The experiment in a line: two-hybrid library CCmax. The settings on record: mean of both orientations.

For the next assay, the target named is T12, 4H3605-AA.
T12 chain: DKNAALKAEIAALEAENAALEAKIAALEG
The experiment in a line: two-hybrid library CCmax. Particulars: mean of both orientations.

The target of another assay is T13, 4H2608-AA.
T13 chain: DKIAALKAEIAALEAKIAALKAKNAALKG
The assay can be described thus: two-hybrid library CCmax. The settings on record: mean of both orientations.

For the next assay, the target named is T14, 4H327-AA.
T14 chain: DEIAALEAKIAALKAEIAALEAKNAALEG
The experiment in a line: two-hybrid library CCmax. Particulars: mean of both orientations.

In the next assay the target is T15, 4H3922-AA.
T15 chain: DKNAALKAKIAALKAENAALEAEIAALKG
The assay can be described thus: two-hybrid library CCmax. The settings on record: mean of both orientations.

The target of the next assay is T16, 4H3664-AA.
T16 chain: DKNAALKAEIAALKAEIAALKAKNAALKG
The experiment in a line: two-hybrid library CCmax. Particulars: mean of both orientations.

In the next assay the target is T17, 4H918-bA.
T17 chain: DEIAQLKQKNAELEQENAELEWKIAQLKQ
The assay can be described thus: two-hybrid library CCNG1.

For another assay, the target named is T18, 4H457-bA.
T18 chain: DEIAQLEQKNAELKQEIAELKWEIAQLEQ
The experiment in a line: two-hybrid library CCNG1.

The next assay has as its target T19, 4H754-bA.
T19 chain: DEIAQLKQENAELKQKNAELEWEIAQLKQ
The assay can be described thus: two-hybrid library CCNG1.

Another assay concerns the target T20, 4H3112-bA.
T20 chain: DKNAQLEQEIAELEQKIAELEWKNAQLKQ
The experiment in a line: two-hybrid library CCNG1.

For the next assay, the target named is T21, 4H2702-bA.
T21 chain: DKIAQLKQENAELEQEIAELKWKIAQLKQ
The experiment in a line: two-hybrid library CCNG1.

For the next assay, the target named is T22, 4H968-bA.
T22 chain: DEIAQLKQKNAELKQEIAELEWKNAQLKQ
The assay can be described thus: two-hybrid library CCNG1.

Another assay deals with T23, 4H2673-bA.
T23 chain: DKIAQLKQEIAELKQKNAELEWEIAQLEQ
The assay can be described thus: two-hybrid library CCNG1.

For the next assay, the target named is T24, 4H4073-bA.
T24 chain: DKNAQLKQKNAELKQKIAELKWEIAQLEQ
The experiment in a line: two-hybrid library CCNG1.

The next assay deals with T25, 4H683-bA.
T25 chain: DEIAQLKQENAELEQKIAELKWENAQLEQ
The assay can be described thus: two-hybrid library CCNG1.

A further assay deals with T26, 4H3010-bA.
T26 chain: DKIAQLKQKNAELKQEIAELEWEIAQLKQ
The experiment in a line: two-hybrid library CCNG1.

The target of the next assay is T27, 4H3926-bA.
T27 chain: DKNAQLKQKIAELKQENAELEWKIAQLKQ
The experiment in a line: two-hybrid library CCNG1.

The target in a further assay is T28, 4H953-bA.
T28 chain: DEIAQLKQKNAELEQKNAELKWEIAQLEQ
The assay can be described thus: two-hybrid library CCNG1.

The next assay deals with T29, 4H780-bA.
T29 chain: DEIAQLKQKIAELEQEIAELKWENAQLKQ
The experiment in a line: two-hybrid library CCNG1.

The next assay has as its target T30, 4H3427-bA.
T30 chain: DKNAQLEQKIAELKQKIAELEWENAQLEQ
The assay can be described thus: two-hybrid library CCNG1.

Another assay has as its target T31, 4H575-bA.
T31 chain: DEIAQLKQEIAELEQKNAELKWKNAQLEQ
The assay can be described thus: two-hybrid library CCNG1.

In a further assay the target is T32, 4H346-bA.
T32 chain: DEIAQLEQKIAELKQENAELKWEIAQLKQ
The experiment in a line: two-hybrid library CCNG1.

A further assay deals with T33, 4H855-bA.
T33 chain: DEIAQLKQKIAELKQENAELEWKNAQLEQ
The experiment in a line: two-hybrid library CCNG1.

The target of the next assay is T34, 4H797-bA.
T34 chain: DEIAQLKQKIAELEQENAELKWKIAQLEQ
The assay can be described thus: two-hybrid library CCNG1.

The next assay has as its target T35, P8A-bS.
T35 chain: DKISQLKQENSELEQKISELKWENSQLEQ
The experiment in a line: two-hybrid library CCNG1.

For a further assay, the target named is T36, P9A-bS.
T36 chain: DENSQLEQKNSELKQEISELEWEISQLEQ
The experiment in a line: two-hybrid library CCNG1.

In the next assay the target is T37, P7A-bS.
T37 chain: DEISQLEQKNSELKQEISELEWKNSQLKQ
The assay can be described thus: two-hybrid library CCNG1.

DKIAALEAKNAALKAKIAALEAKNAALKG [4H2536-AA]: the interaction score in the assay with 4H2726-AA was 1.39; in the assay with 4H2536-AA, -0.663; in the assay with 4H2935-AA, -1.66; in the assay with 4H3625-AA, -1.16; in the assay with 4H4033-AA, -1.47; in the assay with 4H662-AA, -1.33. For the same molecule, the interaction score was 0.0403 with 4H369-AA; -1.65 with O3-AA; -1.17 with 4H55-AA; -0.0556 with 4H481-AA; -1.61 with 4H2614-AA; 1.29 with 4H3605-AA. The interaction score with 4H2608-AA is -0.457; with 4H327-AA, -1.02; with 4H3922-AA, 0.635; in the assay with 4H3664-AA, -1.51.
In the case of DKIAQLKQEIAELKQKNAELEWEIAQLEQ [4H2673-bA], the interaction score was -0.235 with 4H918-bA; -1.45 in the assay with 4H457-bA; -0.889 with 4H754-bA; -0.873 with 4H3112-bA; -1.01 with 4H2702-bA; -0.811 with 4H968-bA. In addition, the interaction score with 4H2673-bA is 0.275; with 4H4073-bA it was 0.202; in the assay with 4H683-bA it was -0.575; with 4H3010-bA, 2; with 4H3926-bA it was 1.58; with 4H953-bA it was -0.927. The interaction score with 4H780-bA was -1.03; in the assay with 4H3427-bA, -1.17; in the assay with 4H575-bA, 0.276; with 4H346-bA it was -0.931; in the assay with 4H855-bA, 0.000366; with 4H797-bA it was -2.16.
Regarding DEISQLEQKNSELKQEISELEWKNSQLKQ [P7A-bS], the interaction score was 0.493 with P8A-bS, -0.768 in the assay with P9A-bS and -1.32 in the assay with P7A-bS.
